Patent US20200216495A1 (ADRX, published 2020)
Several values for one entry are separate records, joined by “and”; a condition that tells them apart may be missing. Equal values may be shown once. Square brackets hold non-standard residues; d marks the D form. Ends that are not written are not given here. dCit = NC(=O)NCCC[C@@H](N)C(=O)O; dNle = CCCC[C@@H](N)C(=O)O

Target: Tau40 P301L protein (human)
Assay: cell-based or functional assay

Row | IC50, Tau40 assay (ThT) | Binder
1 | 2400 nM | [dW][dR][dL][dE][dV][dR][dW] [wrlevrw (PEPTIDE ID NO: 315)]
2 | 2070 nM | [dW][dT][dL][dR][dI][dH][dW] [wtlrihw (PEPTIDE ID NO: 305)]
3 | 2470 nM | [dW][dQ][dL][dK][dV][dQ][dW] [wqlkvqw (PEPTIDE ID NO: 319)]
4 | 2070 nM | [dW][dR][dL][dN][dV][dR][dW] [wrlnvrw (PEPTIDE ID NO: 306)]
5 | 2070 nM | [dW][dM][dL][dR][dI][dH][dW] [wmlrihw (PEPTIDE ID NO: 304)]
6 | 1940 nM | [dW][dR][dL][dA][dV][dR][dW] [wrlavrw (PEPTIDE ID NO: 301)]
7 | 2520 nM | [dW][dW][dL][dK][dL][dR][dW][dW] [wwlklrww (PEPTIDE ID NO: 81)]
8 | 2260 nM and 950 nM and 2390 nM and 820 nM | [dW][dK][dV][dQ][dV][dR][dL][dW] [wkvqvrlw (PEPTIDE ID NO: 2)]
9 | 2180 nM and 2210 nM | [dW][dL][dR][dV][dQ][dV][dK][dW] [wlrvqvkw (PEPTIDE ID NO: 111)]
10 | 2650 nM | [dW][dR][dL][dA][dI][dH][dW] [wrlaihw (PEPTIDE ID NO: 325)]
11 | 2170 nM | [dY][dH][dL][dK][dL][dH][dY][dW] [yhlklhyw (PEPTIDE ID NO: 440)]
12 | 2360 nM | [dW][dR][dL][dR][dI][dT][dW] [wrlritw (PEPTIDE ID NO: 314)]
13 | 2230 nM | [dW][dR][dL][dW][dV][dR][dW][dW] [wrlwvrww (PEPTIDE ID NO: 310)]
14 | 2610 nM | [dW][dR][dL][dK][dV][dR][dA] [wrlkvra (PEPTIDE ID NO: 323)]
15 | 2670 nM | [dW][dK][dL][dW][dL][dR][dW][dW] [wklwlrww (PEPTIDE ID NO: 12)]
16 | 1980 nM | [dW][dR][dL][dR][dI][dW][dW] [wrlriww (PEPTIDE ID NO: 103)]
17 | 2380 nM and 2610 nM | [dW][dR][dI][dW][dI][dR][dY][dW] [wriwiryw (PEPTIDE ID NO: 105)]
18 | 2300 nM | [dW][dR][dL][dK][dV][dE][dW][dW] [wrlkveww (PEPTIDE ID NO: 313)]

Second part, the binder before the results:

Row | Binder | IC50, Tau40 assay (ThT)
19 | [dF][dR][dV][dK][dI][dQ][dH][dW] [frvkiqhw (PEPTIDE ID NO: 120)] | 2490 nM
20 | [dW][dK][dL][dK][dL][dR][dW][dW] [wklklrww (PEPTIDE ID NO: 13)] | 2560 nM
21 | [dW][dE][dL][dR][dI][dH][dW] [welrihw (PEPTIDE ID NO: 322)] | 2580 nM
22 | [dF][dE][dL][dH][dI][dK][dW][dH] [felhikwh (PEPTIDE ID NO: 134)] | 2340 nM
23 | [dP][dR][dI][dR][dL][dH][dW] [prirlhw (PEPTIDE ID NO: 33)] | 1940 nM and 1950 nM
24 | [dL][dE][dI][dR][dI][dH][dY] [leirihy (PEPTIDE ID NO: 316)] | 2430 nM
25 | [dR][dI][dR][dW][dY][dW][dK] [rirwywk (PEPTIDE ID NO: 311)] | 2270 nM
26 | [dF][dH][dI][dH][dI][dK][dF][dH] [fhihikfh (PEPTIDE ID NO: 437)] | 2020 nM
27 | [dL][dR][dV][dQ][dV][dR][dL] [lrvqvrl (PEPTIDE ID NO: 441)] | 2130 nM
28 | [dL][dK][dI][dM][dI][dH][dY] [lkimihy (PEPTIDE ID NO: 317)] | 2440 nM
29 | [dL][dK][dI][dF][dI][dY][dY][dH] [lkifiyyh (PEPTIDE ID NO: 302)] | 1990 nM
30 | [dR][dI][dK][dL][dR][dW] [riklrw (PEPTIDE ID NO: 24)] | 2030 nM and 2060 nM
31 | [dL][dK][dI][dNle][dI][dH][dY] [lkiuihy (PEPTIDE ID NO: 321)] | 2540 nM
32 | [dH][dY][dH][dI][dR][dI][dK][dL] [hyhirikl (PEPTIDE ID NO: 300)] | 1940 nM
33 | [dF][dE][dI][dR][dI][dH][dY][dH] [feirihyh (PEPTIDE ID NO: 442)] | 2590 nM
34 | [dL][dK][dI][dR][dI][dE][dY] [lkiriey (PEPTIDE ID NO: 324)] | 2630 nM
35 | [dL][dK][dI][dR][dI][dH][dE][dH] [lkiriheh (PEPTIDE ID NO: 318)] | 2450 nM
36 | [dL][dK][dI][dR][dI][dW][dY][dH] [lkiriwyh (PEPTIDE ID NO: 206)] | 780 nM
37 | [dR][dL][dR][dI][dH][dW][dF] [rlrihwf (PEPTIDE ID NO: 446)] | 2690 nM

Row | Binder | IC50, Tau40 assay (ThT)
38 | [dW][dI][dK][dI][dW][dR] [wikiwr (PEPTIDE ID NO: 29)] | 2020 nM
39 | [dL][dK][dI][dCit][dI][dH][dY] [lkizihy (PEPTIDE ID NO: 320)] | 2470 nM
40 | [dH][dW][dR][dW][dR][dW][dR] [hwrwrwr (PEPTIDE ID NO: 326)] | 2690 nM
41 | [dF][dE][dL][dR][dL][dH][dW][dH] [felrlhwh (PEPTIDE ID NO: 133)] | 2110 nM and 2410 nM
42 | [dR][dI][dR][dL][dR][dW] [rirlrw (PEPTIDE ID NO: 38)] | 2040 nM and 2200 nM
43 | [dR][dI][dR][dW][dR][dW] [rirwrw (PEPTIDE ID NO: 50)] | 2020 nM
44 | [dL][dK][dI][dR][dI][dE][dH][dY] [lkiriehy (PEPTIDE ID NO: 155)] | 2450 nM
45 | [dL][dK][dI][dR][dI][dA][dY][dH] [lkiriayh (PEPTIDE ID NO: 303)] | 2030 nM
46 | [dF][dR][dI][dR][dI][dH][dH][dF] [fririhhf (PEPTIDE ID NO: 113)] | 740 nM and 810 nM
47 | [dL][dK][dL][dK][dI][dK][dH][dF] [lklkikhf (PEPTIDE ID NO: 154)] | 2210 nM
48 | [dK][dW][dR][dL][dK][dV][dR][dW] [kwrlkvrw (PEPTIDE ID NO: 207)] | 780 nM
49 | [dT][dW][dR][dL][dK][dV][dR][dW] [twrlkvrw (PEPTIDE ID NO: 205)] | 750 nM
50 | [dL][dK][dI][dR][dI][dL][dY][dH] [lkirilyh (PEPTIDE ID NO: 208)] | 790 nM
51 | [dV][dR][dW][dW][dW][dR][dL][dK] [vrwwwrlk (PEPTIDE ID NO: 204)] | 740 nM
52 | [dR][dL][dR][dI][dH][dW][dW] [rlrihww (PEPTIDE ID NO: 164)] | 2050 nM
53 | [dL][dK][dL][dE][dI][dR][dW][dH] [lkleirwh (PEPTIDE ID NO: 429)] | 2420 nM
54 | [dL][dA][dI][dR][dI][dH][dY][dH] [lairihyh (PEPTIDE ID NO: 309)] | 2190 nM
55 | [dF][dR][dI][dK][dI][dR][dW] [frikirw (PEPTIDE ID NO: 61)] | 2560 nM and 2570 nM
56 | [dA][dR][dL][dR][dI][dH][dW] [arlrihw (PEPTIDE ID NO: 312)] | 2280 nM
